For the assay, the target named is EV-D68 US/MO/14-18947 viral particles (Enterovirus D68).

The substance “secreted MFSD6-Fc microbody (from UniProt Q6ZSS7 153-280) (Fc fusion)” registered a survival rate of neonatal ICR mice (n = 9 per group) given 1.0 × 10^7 TCID50 of EV-D68 US/MO/14-18947 pre-incubated with 15 ug secMFSD6 Mb (secCtl Mb group: 11.11%) of 88.9%.

Values taken from paper PMC12452593.
